Measured values published in patent publication US10344301, “Mutants of the bacteriophage lambda integrase” (AGENCY FOR SCIENCE, TECHNOLOGY AND RESEARCH).

Target: T1, C3-HIS integrase (E. coli minicircle) (Bacteriophage lambda, UniProt P03700 SEQ:1-356)
T1 chain: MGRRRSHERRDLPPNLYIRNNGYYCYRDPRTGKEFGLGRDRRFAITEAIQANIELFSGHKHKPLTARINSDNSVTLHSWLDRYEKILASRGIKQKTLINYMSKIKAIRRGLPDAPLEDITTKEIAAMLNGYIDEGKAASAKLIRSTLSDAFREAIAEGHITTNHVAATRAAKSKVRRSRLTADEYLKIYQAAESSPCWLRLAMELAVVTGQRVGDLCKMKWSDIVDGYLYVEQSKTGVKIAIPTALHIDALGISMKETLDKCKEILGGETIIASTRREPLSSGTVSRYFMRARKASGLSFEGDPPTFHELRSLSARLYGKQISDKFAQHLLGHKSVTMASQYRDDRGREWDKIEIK
Test: cell_activity; E. coli TG1 chromosomal attB integration; 27 colonies, ~90% correct
Settings: tags: His tag
Text: The present example follows the methodology depicted in FIG. 2. C3INT-HIS-PET22b(+) was amplified with petF2 (SEQ ID NO: 10) and petR (SEQ ID NO: 11) and the PCR product subsequently intramolecularly ligated to produce a C3INT-HIS minicircle. attP-PET22b(+) was amplified with attP-F (SEQ ID NO: 12) and attPSOE-R (SEQ ID NO: 13) while PET22b(+) was amplified with TEM1prom-F (SEQ ID NO: 14) and TEM1promR (SEQ ID NO: 15) which produced PCR products encoding attP and ampicillin-resistant gene respectively. Splice overlap extension PCR (SOE-PCR) was carried out with these two PCR products using attP-F (SEQ ID NO: 12) and TEM1prom-R (SEQ ID NO: 15). The PCR product was subsequently intramolecularly ligated to produce attP-TEM1 minicircle. 100 ng of C3INT-HIS minicircle and 100 ng attP-TEM1 minicircle were combined and electroporated to 25 μL electrocompetent TG1 cells. The cells were allowed to recover for 1 hr before being plated on varying concentrations of ampicillin-LB agar plates (0.01 mg/mL, 0.02 mg/mL, 0.05 mg/mL, 0.07 mg/mL and 0.1 mg/mL). Incubation was carried out at 37° C. for 12-14 hrs to allow for expression of C3 integrase and chromosomal integration of the ampicillin-resistance cassette by C3 integrase. […]

B1: attB ; attP (dsDNA ; dsDNA)
DNA 1: CTGCTTTTTTATACTAACTTG
DNA 2: CAAGTTAGTATAAAAAAGCAG
DNA 3: CAGCTTTTTTATACTAAGTTG
DNA 4: CAACTTAGTATAAAAAAGCTG
binding signal: ~12 fold vs Int-h/218
